Data: the supplement of paper PMC11246515
± gives the standard deviation of the averaged measurements.

Test: total protein half-life in vivo (active degradation + dilution); higher = more stable protein
[1] = E. coli NCM3722 delta-clpP delta-lon delta-hslV, growth: N-lim chemostat, doubling time 6 h
[2] = E. coli NCM3722 delta-clpP, growth: N-lim chemostat, doubling time 6 h
[3] = E. coli NCM3722 delta-hslV, growth: N-lim chemostat, doubling time 6 h
[4] = E. coli NCM3722 delta-lon, growth: N-lim chemostat, doubling time 6 h
[5] = E. coli NCM3722 delta-smpB, growth: N-lim chemostat, doubling time 6 h
[6] = wild type E. coli NCM3722, growth: C-lim chemostat, doubling time 3 h
[7] = wild type E. coli NCM3722, growth: C-lim chemostat, doubling time 6 h
[8] = wild type E. coli NCM3722, growth: C-lim chemostat, doubling time 12 h
[9] = wild type E. coli NCM3722, growth: N-lim chemostat, doubling time 6 h
[10] = wild type E. coli NCM3722, growth: N-lim chemostat, doubling time 12 h
[11] = wild type E. coli NCM3722, growth: P-lim chemostat, doubling time 6 h
[12] = wild type E. coli NCM3722, growth: P-lim chemostat, doubling time 12 h

Q: Which “total protein half-life in vivo” value [1] does the source give for “MIISAASDYRAAAQRILPPFLFHYMDGGAYSEYTLRRNVEDLSEVALRQRILKNMSDLSLETTLFNEKLSMPVALAPVGLCGMYARRGEVQAAKAADAHGIPFTLSTVSVCPIEEVAPAIKRPMWFQLYVLRDRGFMRNALERAKAAGCSTLVFTVDMPTPGARYRDAHSGMSGPNAAMRRYLQAVTHPQWAWDVGLNGRPHDLGNISAYLGKPTGLEDYIGWLGNNFDPSISWKDLEWIRDFWDGPMVIKGILDPEDARDAVRFGADGIVVSNHGGRQLDGVLSSARALPAIADAVKGDIAILADSGIRNGLDVVRMIALGADTVLLGRAFLYALATAGQAGVANLLNLIEKEMKVAMTLTGAKSISEITQDSLVQGLGKELPAALAPMAKGNAA” here?
A: 6.01 ± 0.3 h

Q: And the “total protein half-life in vivo” value [2]?
A: 5.992 ± 0.053 h

Q: What about the “total protein half-life in vivo” value [3] of the same sequence?
A: 4 ± 0.14 h

Q: And the “total protein half-life in vivo” value [4]?
A: 3.3 ± 0.036 h

Q: What about the “total protein half-life in vivo” value [5] of the same sequence?
A: 3.68 ± 0.38 h

Q: And the “total protein half-life in vivo” value [6]?
A: 2.28 ± 0.062 h

Q: And the “total protein half-life in vivo” value [7]?
A: 3.76 ± 0.41 h

Q: What about the “total protein half-life in vivo” value [8] of the same sequence?
A: 5.29 ± 0.5 h

Q: What about the “total protein half-life in vivo” value [9] of the same sequence?
A: 3.73 ± 0.068 h

Q: What about the “total protein half-life in vivo” value [10] of the same sequence?
A: 6.57 ± 0.92 h

Q: And the “total protein half-life in vivo” value [11]?
A: 3.28 ± 0.48 h

Q: What about the “total protein half-life in vivo” value [12] of the same sequence?
A: 6.38 ± 0.44 h

Q: For “MAKQDYYEILGVSKTAEEREIRKAYKRLAMKYHPDRNQGDKEAEAKFKEIKEAYEVLTDSQKRAAYDQYGHAAFEQGGMGGGGFGGGADFSDIFGDVFGDIFGGGRGRQRAARGADLRYNMELTLEEAVRGVTKEIRIPTLEECDVCHGSGAKPGTQPQTCPTCHGSGQVQMRQGFFAVQQTCPHCQGRGTLIKDPCNKCHGHGRVERSKTLSVKIPAGVDTGDRIRLAGEGEAGEHGAPAGDLYVQVQVKQHPIFEREGNNLYCEVPINFAMAALGGEIEVPTLDGRVKLKVPGETQTGKLFRMRGKGVKSVRGGAQGDLLCRVVVETPVGLNERQKQLLQELQESFGGPTGEHNSPRSKSFFDGVKKFFDDLTR”, which “total protein half-life in vivo” value [2] is on record?
A: 6.07 ± 0.65 h

Q: And the “total protein half-life in vivo” value [3]?
A: 4.941 ± 0.031 h

Q: And the “total protein half-life in vivo” value [4]?
A: 6.155 ± 0.042 h

Q: And the “total protein half-life in vivo” value [5]?
A: 4.51 ± 0.36 h

Q: What about the “total protein half-life in vivo” value [6] of the same sequence?
A: 2.67 ± 0.034 h

Q: And the “total protein half-life in vivo” value [7]?
A: 4.97 ± 0.22 h

Q: What about the “total protein half-life in vivo” value [8] of the same sequence?
A: 9.44 ± 0.52 h

Q: And the “total protein half-life in vivo” value [9]?
A: 4.9 ± 0.55 h

Q: And the “total protein half-life in vivo” value [10]?
A: 8.73 ± 0.55 h

Q: And the “total protein half-life in vivo” value [11]?
A: 5.193 ± 0.045 h

Q: And the “total protein half-life in vivo” value [12]?
A: 11.41 ± 0.11 h

Q: With “MQEIMQFVGRHPILSIAWIALLVAVLVTTFKSLTSKVKVITRGEATRLINKEDAVVVDLRQRDDFRKGHIAGSINLLPSEIKANNVGELEKHKDKPVIVVDGSGMQCQEPANALTKAGFAQVFVLKEGVAGWAGENLPLVRGK [P0AG27]” as the sequence, how does the “total protein half-life in vivo” value [1] read?
A: 5.92 ± 0.38 h

Q: And the “total protein half-life in vivo” value [2]?
A: 6.89 ± 0.76 h

Q: What about the “total protein half-life in vivo” value [3] of the same sequence?
A: 6.06 ± 0.078 h

Q: And the “total protein half-life in vivo” value [4]?
A: 5.77 ± 1 h

Q: What about the “total protein half-life in vivo” value [5] of the same sequence?
A: 5.7 ± 0.28 h

Q: What about the “total protein half-life in vivo” value [6] of the same sequence?
A: 3.71 ± 0.18 h

Q: And the “total protein half-life in vivo” value [8]?
A: 10.9 ± 1.4 h

Q: What about the “total protein half-life in vivo” value [9] of the same sequence?
A: 5.96 ± 0.49 h

Q: And the “total protein half-life in vivo” value [11]?
A: 6.47 ± 0.095 h

Q: Which “total protein half-life in vivo” value [1] does the source give for “MKVAKDLVVSLAYQVRTEDGVLVDESPVSAPLDYLHGHGSLISGLETALEGHEVGDKFDVAVGANDAYGQYDENLVQRVPKDVFMGVDELQVGMRFLAETDQGPVPVEITAVEDDHVVVDGNHMLAGQNLKFNVEVVAIREATEEELAHGHVHGAHDHHHDHDHDGCCGGHGHDHGHEHGGEGCCGGKGNGGCGCH [P0A9K9]” here?
A: 4.87 ± 0.55 h

Q: And the “total protein half-life in vivo” value [2]?
A: 4.07 ± 0.042 h

Q: What about the “total protein half-life in vivo” value [3] of the same sequence?
A: 3.46 ± 0.26 h

Q: What about the “total protein half-life in vivo” value [4] of the same sequence?
A: 4.18 ± 0.1 h

Q: And the “total protein half-life in vivo” value [5]?
A: 3.3811 ± 0.00031 h

Q: What about the “total protein half-life in vivo” value [6] of the same sequence?
A: 2.88 ± 0.18 h

Q: And the “total protein half-life in vivo” value [7]?
A: 4.63 ± 0.15 h

Q: And the “total protein half-life in vivo” value [8]?
A: 8.14 ± 0.37 h

Q: And the “total protein half-life in vivo” value [9]?
A: 3.47 ± 0.24 h

Q: And the “total protein half-life in vivo” value [10]?
A: 5.28 ± 0.73 h

Q: And the “total protein half-life in vivo” value [11]?
A: 4.54 ± 0.53 h

Q: And the “total protein half-life in vivo” value [12]?
A: 8.69 ± 0.066 h

Q: For “MELIFLGTSAGVPTRTRNVTAILLNLQHPTQSGLWLFDCGEGTQHQLLHTAFNPGKLDKIFISHLHGDHLFGLPGLLCSRSMSGIIQPLTIYGPQGIREFVETALRISGSWTDYPLEIVEIGAGEILDDGLRKVTAYPLEHPLECYGYRIEEHDKPGALNAQALKAAGVPPGPLFQELKAGKTITLEDGRQINGADYLAAPVPGKALAIFGDTGPCDAALDLAKGVDVMVHEATLDITMEAKANSRGHSSTRQAATLAREAGVGKLIITHVSSRYDDKGCQHLLRECRSIFPATELANDFTVFNV [P0A8V0]”, which “total protein half-life in vivo” value [1] is on record?
A: 4.1 ± 0.62 h

Q: And the “total protein half-life in vivo” value [2]?
A: 5.44 ± 1 h

Q: What about the “total protein half-life in vivo” value [3] of the same sequence?
A: 4.51 ± 0.3 h

Q: And the “total protein half-life in vivo” value [4]?
A: 5.43 ± 0.51 h

Q: And the “total protein half-life in vivo” value [5]?
A: 3.918 ± 0.011 h

Q: What about the “total protein half-life in vivo” value [6] of the same sequence?
A: 3.01 ± 0.12 h

Q: What about the “total protein half-life in vivo” value [7] of the same sequence?
A: 5.64 ± 0.69 h

Q: And the “total protein half-life in vivo” value [8]?
A: 10 ± 0.64 h

Q: And the “total protein half-life in vivo” value [9]?
A: 3.93 ± 0.28 h

Q: And the “total protein half-life in vivo” value [10]?
A: 7.42 ± 0.32 h

Q: And the “total protein half-life in vivo” value [11]?
A: 5.54 ± 1.4 h

Q: And the “total protein half-life in vivo” value [12]?
A: 11.3 ± 2.1 h

Q: Which “total protein half-life in vivo” value [1] does the source give for “MAGHSKWANTRHRKAAQDAKRGKIFTKIIRELVTAAKLGGGDPDANPRLRAAVDKALSNNMTRDTLNRAIARGVGGDDDANMETIIYEGYGPGGTAIMIECLSDNRNRTVAEVRHAFSKCGGNLGTDGSVAYLFSKKGVISFEKGDEDTIMEAALEAGAEDVVTYDDGAIDVYTAWEEMGKVRDALEAAGLKADSAEVSMIPSTKADMDAETAPKLMRLIDMLEDCDDVQEVYHNGEISDEVAATL [P0A8A0]” here?
A: 5.28 ± 0.71 h

Q: What about the “total protein half-life in vivo” value [2] of the same sequence?
A: 4.61 ± 0.6 h

Q: And the “total protein half-life in vivo” value [3]?
A: 3.03 ± 0.19 h

Q: And the “total protein half-life in vivo” value [4]?
A: 3.29 ± 0.17 h

Q: And the “total protein half-life in vivo” value [5]?
A: 2.94 ± 0.12 h

Q: And the “total protein half-life in vivo” value [6]?
A: 2.524 ± 0.013 h

Q: And the “total protein half-life in vivo” value [7]?
A: 4.01 ± 0.095 h

Q: What about the “total protein half-life in vivo” value [8] of the same sequence?
A: 7.21 ± 0.53 h

Q: And the “total protein half-life in vivo” value [9]?
A: 3.15 ± 0.058 h

Q: What about the “total protein half-life in vivo” value [10] of the same sequence?
A: 4.09 ± 0.034 h

Q: And the “total protein half-life in vivo” value [11]?
A: 3.69 ± 0.66 h

Q: And the “total protein half-life in vivo” value [12]?
A: 6.79 ± 0.84 h

Q: Which results are given for “MLKQVEIFTDGSCLGNPGPGGYGAILRYRGREKTFSAGYTRTTNNRMELMAAIVALEALKEHCEVILSTDSQYVRQGITQWIHNWKKRGWKTADKKPVKNVDLWQRLDAALGQHQIKWEWVKGHAGHPENERCDELARAAAMNPTLEDTGYQVEV [P0A7Y4]”?
A: total protein half-life in vivo [2]: 6.46 ± 0.89 h; total protein half-life in vivo [7]: 5.92 ± 0.082 h; total protein half-life in vivo [8]: 9.26 h; total protein half-life in vivo [9]: 4.7 ± 0.96 h; total protein half-life in vivo [11]: 6.5 ± 0.82 h
